# Source: patent US20160319032A1 (MEDLMMUNE, published 2016)
# Numbering of substitutions follows the chain as printed.
# B1: sc 161 (antibody, V domains shown)
# VH: EVQLVQSGAEVKKPGESLKISCKGSGYSFTSYWIGWVRQMPGKGLEWMGIIYPGDSDTRYSPSFQGQVTISADKSISTAYLQWSSLKASDTAMYYCARHGIAAAGFYYYYMDVWGQGTTVTVSS
# VL: EIVLTQSPDTLSLSPGERASLSCRASQNVNRNYLVWYQQKPGQAPRLLIYGTSNRATGIPDRFSGSGSGTDFTLTISRLEPEDFAVYYCQQCGSLPFTFGPGTKVDIKR
# notes: kappa light chain
# B2: sc 254 (antibody, V domains shown)
# VH: QVQLQESGPGLVKPSQTLSLTCTVSGGSISSGGYYWSWIRQHPGKGLEWIGYIYYSGSTYYNPSLKSRVTISVDTSKNQFSLKLSSVTAADTAMYYCARYRGPAAGRGDFYYFGMDVWGQGTTVTVSS
# VL: DIVMTQTPLSLSVTPGQPASIFCKSSQSLLNSDGKTYLCWYLQKPGQPPQLLIYEVSNRFSGVPDRFSGSGSGTDFTLKISRVEAEDVGVYYCMQGIQLPWAFFGQGTKVEIK
# notes: kappa light chain
# B3: sc 188 (antibody, V domains shown)
# VH: QVQLQESGPGLVKPSQTLSLTCTVSGGSISSGVYYWTWIRQHPGNGLEWIGYIYYSGSTSYNPSLKSRVTISVDTSKKQFSLNLTSVTAADTAVYYCAREGPLRGDYYYGLDVWGQGTTVTVSS
# VL: EIVLTQSPGTLSLSPGERATLSCRAGQTISSRYLAWYQQKPGQAPRPLIYGASSRATGIPDRFSGSGSGTDFTLTISRLEPEDFAVYYCQQYGSSPRTFGQGTKVEIK
# notes: kappa light chain
# B4: sc 58 (antibody, V domains shown)
# VH: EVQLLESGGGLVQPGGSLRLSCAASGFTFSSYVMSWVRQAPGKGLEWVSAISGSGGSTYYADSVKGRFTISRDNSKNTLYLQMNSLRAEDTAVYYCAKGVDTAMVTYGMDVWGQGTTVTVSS
# VL: SYELTQPPSVSVSPGQTARITCSGDALPKKYAYWYQQKSGQAPVLVIYDDSKRPSGIPERFSGSSSGTMATLTISGAQVEDEADYYCYSTDSSGNHRVFGGGTKLTVL
# notes: lambda light chain; also called sc 058
# B5: sc 277 (antibody, V domains shown)
# VH: EVQLVQSGAEVKKPGESLKISCKGSGYSFPSYWIGWVRQMPGKGLEWMGIIYPGDSDTRYSPSFQGQVTISADKSISTAYLQWSSLKASDTAMYYCARHPMEDGMDVWGQGTTVTVSS
# VL: SYELTQPPSVSVSPGQTARITCSGDALPKKYAFWYQQKSGQAPVLVIYDDNKRPSGIPERFSGSSSGTMATLTITGAQVEDEADYYCYSTDSSGHHVFGGGTKLTVL
# notes: lambda light chain
# B6: sc 133 (antibody, V domains shown)
# VH: QVQLVQSGAEVKKPGASVKVSCKASGYTFTGYYMHWVRQAPGQGLEWMGWINPKSGDTNYAQKFQGRVTLTRDTSTSTAYMELSRLRSDDTAVYYCARRLDVWGQGTTVTVSS
# VL: QSVLTQPPSVSAAPGQKVTISCSGSSSNIGNNYVSWYQQLPGTAPKLLIYDNNKRPSGIPDRFSGSKSGTSATLGITGLQTGDEADYYCGTWNSSLSAGYVFGTGTKVTV
# notes: lambda light chain; also called mAb sc 133
# B7: sc 264 (antibody, V domains shown)
# VH: QVQLQESGPGLVKPSQTLSLTCTVSGGSISSGGYYWSWIRQHPGKGLEWIGYIYYSGRTYNNPSLKSRVTISVDTSKNQFSLKLSSVTAADTAVYYCARVATGRGDYHFYAMDVWGQGTTVTVSS
# VL: SYELTQPSSVSVSPGQTARITCSGDVLAKKSARWFHQKPGQAPVLVIYKDSERPSGIPERFSGSSSGTTVTLTISGAQVEDEAAYYCYSAADNNLVFGGGTKLTVL
# notes: lambda light chain
# B8: sc 320 (antibody, V domains shown)
# VH: EVQLVESGGGLVKPGGSLRLSCAASGYTFTNYIMHWVRQAPGKGLEWVSSISISSSYIYYADSVKGRFTISRDNAKNSLYLQMNSLRAEDTAVYYCARDPVPLERRDYYYGMDVWGQGTTVTVSS
# VL: QSVLTQPPSMSAAPGQKVTISCSGSSSNIGNNYVSWYQQLPGTAPKLLIYDNNKRPSGIPDRFSGSKSGTSATLGITGLQTGDEADYYCGTWDSSLSAGVFGGGTKLTVL
# notes: lambda light chain
# B9: sc 97 (antibody, V domains shown)
# VH: EVQLVQSGAEVKKPGESLKISCKGSGYSFTSYWIGWVRQMPGKGLEWMGIIYPGDSDTRYSPSFQGQVILSADKSISTAYLQWSSLKASDTAMYYCARHDESSGYYYVFDIWGQGTMVTVSS
# VL: SYELTQPPSVSVSPGQTARITCSGDALPKKYAYWYQQKSGQAPVLVIYEDIKRPSGIPERFSGSSSGTMATLTISGAQVEDEADYYCYSTDSSGNHWVFFGGGTKLTVL
# notes: lambda light chain; also called sc 097
# B10: sc 188 SDM (antibody, V domains shown)
# VH: B3 VH with N83K
# VL: B3 VL
# B11: sc 264 RAD (antibody, V domains shown)
# VH: B7 VH with G105A
# VL: B7 VL
# B12: sc 49 (antibody, V domains shown)
# VH: QVQLQESGPGLVKPSQTLSLTCTVAGGSIRSGDYYWSWIRQHPGKGLEWIGNIYYSGSTYYNPSLKSRITISVATSRNQFSLKLTSVTAADTAVYYCARGGAITIFGVFDYWGQGTLVTVSS
# VL: not shown
# notes: kappa light chain; also called sc 049
# Target: T1, human αVβ6 integrin on cells (human, UniProt P06756 31-1048; P18564 22-788)
# Experiment: cell-based or functional assay
# T1 sequence (P06756 31-1048, chain 1 of 2): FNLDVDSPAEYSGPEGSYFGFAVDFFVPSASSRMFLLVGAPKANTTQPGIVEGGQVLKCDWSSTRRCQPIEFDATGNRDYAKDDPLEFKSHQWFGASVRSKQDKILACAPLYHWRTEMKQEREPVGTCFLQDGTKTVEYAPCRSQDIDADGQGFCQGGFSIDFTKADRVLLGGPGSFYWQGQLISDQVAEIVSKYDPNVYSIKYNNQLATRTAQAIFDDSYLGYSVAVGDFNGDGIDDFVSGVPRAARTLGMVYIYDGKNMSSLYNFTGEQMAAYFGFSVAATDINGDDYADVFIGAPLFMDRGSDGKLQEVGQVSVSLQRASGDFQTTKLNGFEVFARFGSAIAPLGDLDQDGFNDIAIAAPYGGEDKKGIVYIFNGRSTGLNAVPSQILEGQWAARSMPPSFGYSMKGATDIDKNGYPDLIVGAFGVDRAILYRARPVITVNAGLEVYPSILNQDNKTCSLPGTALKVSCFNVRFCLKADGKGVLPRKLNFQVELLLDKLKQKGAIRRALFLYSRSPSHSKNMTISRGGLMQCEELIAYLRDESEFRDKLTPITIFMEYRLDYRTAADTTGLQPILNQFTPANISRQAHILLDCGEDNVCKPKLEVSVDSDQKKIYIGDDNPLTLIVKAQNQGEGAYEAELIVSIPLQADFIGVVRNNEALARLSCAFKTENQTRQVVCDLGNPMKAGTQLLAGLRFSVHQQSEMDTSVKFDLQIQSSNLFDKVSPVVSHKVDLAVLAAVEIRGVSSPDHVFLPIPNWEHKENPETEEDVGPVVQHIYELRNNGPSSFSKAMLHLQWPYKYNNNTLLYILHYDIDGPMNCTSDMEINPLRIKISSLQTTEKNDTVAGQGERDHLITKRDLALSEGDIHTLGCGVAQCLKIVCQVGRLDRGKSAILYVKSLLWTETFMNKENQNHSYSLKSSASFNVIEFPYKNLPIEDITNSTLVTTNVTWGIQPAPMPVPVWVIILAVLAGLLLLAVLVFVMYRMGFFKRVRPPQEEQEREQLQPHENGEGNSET
# T1 sequence (P18564 22-788, chain 2 of 2): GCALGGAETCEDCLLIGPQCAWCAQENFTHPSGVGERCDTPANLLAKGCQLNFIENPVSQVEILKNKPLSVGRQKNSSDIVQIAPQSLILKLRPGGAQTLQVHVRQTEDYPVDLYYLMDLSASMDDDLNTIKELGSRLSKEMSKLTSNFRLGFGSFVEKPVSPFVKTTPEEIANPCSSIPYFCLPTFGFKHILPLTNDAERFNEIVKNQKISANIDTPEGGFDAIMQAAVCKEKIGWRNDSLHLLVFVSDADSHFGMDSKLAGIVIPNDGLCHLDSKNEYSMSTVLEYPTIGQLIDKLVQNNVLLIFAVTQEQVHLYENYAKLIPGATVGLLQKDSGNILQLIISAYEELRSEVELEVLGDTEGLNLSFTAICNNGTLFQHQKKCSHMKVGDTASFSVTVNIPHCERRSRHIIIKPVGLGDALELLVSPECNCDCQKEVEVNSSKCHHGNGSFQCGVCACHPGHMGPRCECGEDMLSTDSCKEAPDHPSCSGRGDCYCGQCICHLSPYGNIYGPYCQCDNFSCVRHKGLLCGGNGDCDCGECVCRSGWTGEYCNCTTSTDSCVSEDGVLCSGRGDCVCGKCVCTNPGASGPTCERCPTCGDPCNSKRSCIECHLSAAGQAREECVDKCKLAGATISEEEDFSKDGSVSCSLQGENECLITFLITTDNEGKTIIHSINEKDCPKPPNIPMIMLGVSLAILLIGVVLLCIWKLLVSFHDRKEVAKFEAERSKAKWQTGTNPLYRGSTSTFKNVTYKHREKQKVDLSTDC
Binder,Assay 1 % Inhibition of adhesion,Assay 2 % Inhibition of adhesion,Average % Inhibition of adhesion
B1,98%,106%,102%
B2,98%,106%,102%
B3,99%,103%,101%
B4,77%,46%,62%
B5,98%,101%,100%

# Target: T1, human αVβ6 integrin on cells
# Experiment: cell-based or functional assay
# Remark: another data set of the same source
Binder,"Estimated IC50, adhesion assay, n = 1","Estimated IC50, adhesion assay, n = 2","Estimated IC50, adhesion assay, n = 3"
B1,2.41 µg/mL,0.137 µg/mL,
B2,0.063 µg/mL,0.037 µg/mL,0.037 µg/mL
B3,0.041 µg/mL,0.026 µg/mL,
B4,4.07 µg/mL,2.03 µg/mL,3.26 µg/mL
B5,1.46 µg/mL,0.54 µg/mL,0.72 µg/mL

# Target: human αV on parental A375M cells (αVβ3 and αVβ5 integrins) (human, UniProt P06756 31-1048)
# Experiment: cell-based or functional assay
# Chain of human αV on parental A375M cells (αVβ3 and αVβ5 integrins) (P06756 31-1048 A375M, form in doubt): as the sequence (P06756 31-1048, chain 1 of 2) above, with A345M counted along it
row,Binder,"Percent Inhibition of A375M adhesion to osteopontin peptide, 5 ug/ml"
1,B6,3%
2,B7,3%

# Target: T2, α4β1 integrin on J6.77 cells (UniProt P13612 34-1032; P05556 21-798)
# Experiment: cell-based or functional assay
row,Binder,"Percent Inhibition of J6.77 adhesion to CS-1 peptide, 5 ug/ml"
1,B8,-8%
2,B9,-7%
3,B1,12%
4,B2,0%
5,B6,-15%
6,B3,-10%
7,B4,-14%
8,B5,-17%
9,B7,-8%

# Target: T3, α5β1 integrin on K562 cells (UniProt P08648 42-1049; P05556 21-798)
# Experiment: cell-based or functional assay
# T3 sequence (P08648 42-1049, chain 1 of 2): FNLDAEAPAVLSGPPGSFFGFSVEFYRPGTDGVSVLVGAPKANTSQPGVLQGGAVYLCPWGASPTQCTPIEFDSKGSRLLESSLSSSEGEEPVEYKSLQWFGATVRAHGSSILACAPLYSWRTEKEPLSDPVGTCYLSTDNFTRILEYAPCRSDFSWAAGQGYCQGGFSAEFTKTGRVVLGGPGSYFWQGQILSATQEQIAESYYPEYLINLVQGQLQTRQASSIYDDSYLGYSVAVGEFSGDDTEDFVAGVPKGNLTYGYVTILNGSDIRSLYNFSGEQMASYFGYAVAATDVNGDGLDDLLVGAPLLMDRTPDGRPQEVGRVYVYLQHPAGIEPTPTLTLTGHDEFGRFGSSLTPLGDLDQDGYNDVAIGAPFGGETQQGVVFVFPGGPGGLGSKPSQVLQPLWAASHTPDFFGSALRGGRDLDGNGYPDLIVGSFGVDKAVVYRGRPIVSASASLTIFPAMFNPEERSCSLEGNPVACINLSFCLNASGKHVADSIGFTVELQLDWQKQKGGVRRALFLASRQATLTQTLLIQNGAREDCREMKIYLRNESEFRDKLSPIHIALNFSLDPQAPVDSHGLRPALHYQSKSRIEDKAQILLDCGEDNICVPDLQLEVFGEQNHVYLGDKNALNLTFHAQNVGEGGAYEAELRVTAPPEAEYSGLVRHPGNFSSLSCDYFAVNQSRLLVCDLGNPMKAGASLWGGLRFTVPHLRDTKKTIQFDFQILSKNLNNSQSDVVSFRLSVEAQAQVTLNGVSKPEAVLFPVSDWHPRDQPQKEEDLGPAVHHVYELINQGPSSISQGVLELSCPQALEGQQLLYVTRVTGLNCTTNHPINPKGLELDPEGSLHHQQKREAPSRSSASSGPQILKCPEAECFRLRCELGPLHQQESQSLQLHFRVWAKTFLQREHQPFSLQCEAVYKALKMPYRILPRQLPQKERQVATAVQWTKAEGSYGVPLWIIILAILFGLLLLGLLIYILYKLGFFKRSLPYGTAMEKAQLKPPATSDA
# T3 sequence (P05556 21-798, chain 2 of 2): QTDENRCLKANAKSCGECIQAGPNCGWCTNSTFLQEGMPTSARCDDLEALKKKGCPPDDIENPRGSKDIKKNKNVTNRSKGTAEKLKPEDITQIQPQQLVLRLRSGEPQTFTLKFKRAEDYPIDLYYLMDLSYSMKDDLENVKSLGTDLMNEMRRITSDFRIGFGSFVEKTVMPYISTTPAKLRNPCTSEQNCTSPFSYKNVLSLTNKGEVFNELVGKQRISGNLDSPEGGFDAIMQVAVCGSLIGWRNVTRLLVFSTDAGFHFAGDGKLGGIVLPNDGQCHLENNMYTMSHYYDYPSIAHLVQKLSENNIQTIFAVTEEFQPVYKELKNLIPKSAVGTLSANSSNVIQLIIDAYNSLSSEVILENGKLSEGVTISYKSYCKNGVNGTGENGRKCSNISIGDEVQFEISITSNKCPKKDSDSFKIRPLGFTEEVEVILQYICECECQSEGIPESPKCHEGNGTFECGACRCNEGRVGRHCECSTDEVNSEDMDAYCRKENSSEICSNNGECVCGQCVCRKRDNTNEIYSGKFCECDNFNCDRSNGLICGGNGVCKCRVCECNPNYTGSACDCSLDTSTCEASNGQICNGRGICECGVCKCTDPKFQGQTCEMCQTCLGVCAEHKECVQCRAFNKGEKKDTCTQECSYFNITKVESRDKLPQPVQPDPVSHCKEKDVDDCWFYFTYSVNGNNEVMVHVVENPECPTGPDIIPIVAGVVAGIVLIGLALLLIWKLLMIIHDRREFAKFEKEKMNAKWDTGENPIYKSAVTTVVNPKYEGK
row,Binder,"Percent Inhibition of K562 adhesion to FN9-10, 5 ug/ml"
1,B2,-9%
2,B6,-12%
3,B3,5%
4,B7,-4%

# Target: T1, human αVβ6 integrin on cells
# Experiment: cell-based or functional assay
# Remark: another data set of the same source
Binder,"Percent Internalization, 1 ug/mL","Percent Internalization, 10 ug/mL"
B2,39%,49%
B3,34%,38%

# Target: T1, human αVβ6 integrin on cells
# Experiment: cell-based or functional assay
# Remark: another data set of the same source
Binder,"IC50, adhesion of HT29 cells, n = 1","IC50, adhesion of HT29 cells, n = 2","IC50, adhesion of HT29 cells, n = 3"
B3,0.125 µg/mL,0.157 µg/mL,0.064 µg/mL
B10,0.022 µg/mL,0.024 µg/mL,0.067 µg/mL
B11,0.013 µg/mL,0.013 µg/mL,0.039 µg/mL

# Target: T2, α4β1 integrin on J6.77 cells
# Experiment: cell-based or functional assay
# Remark: another data set of the same source
row,Binder,"Percent Inhibition of J6.77 adhesion to CS-1 peptide, 5 ug/ml"
1,B3,2%
2,B10,-6%
3,B7,-30%
4,B11,-2%

# Target: T3, α5β1 integrin on K562 cells
# Experiment: cell-based or functional assay
# Remark: another data set of the same source
row,Binder,% Inhibition of K562 adhesion to fibronectin
1,B3,-5%
2,B10,-8%
3,B7,3%
4,B11,6%

# Target: T1, human αVβ6 integrin on cells
# Experiment: cell-based or functional assay
# Remark: another data set of the same source
Binder,"Percent Internalization, 1 ug/ml","Percent Internalization, 10 ug/ml"
B3,27%,18%
B10,17%,22%
B11,31%,42%

# Target: T4, cynomolgus αVβ6 on cells (cynomolgus)
# T4 construct: whole, on cells; also called macaque αVβ6; Mac AVB6
# Experiment: FACS, purified mAb, transfected HEK-293 (parental: 74)
row,Binder,percent of cells shifted
1,B7,54%

# Target: T5, mouse αV on transfected HEK-293 cells (mouse, UniProt P43406 31-1044)
# T5 construct: whole, on cells; Transfected alone into human HEK-293 cells; also called Mouse alpha V
# Experiment: as above
# T5 sequence (P43406 31-1044): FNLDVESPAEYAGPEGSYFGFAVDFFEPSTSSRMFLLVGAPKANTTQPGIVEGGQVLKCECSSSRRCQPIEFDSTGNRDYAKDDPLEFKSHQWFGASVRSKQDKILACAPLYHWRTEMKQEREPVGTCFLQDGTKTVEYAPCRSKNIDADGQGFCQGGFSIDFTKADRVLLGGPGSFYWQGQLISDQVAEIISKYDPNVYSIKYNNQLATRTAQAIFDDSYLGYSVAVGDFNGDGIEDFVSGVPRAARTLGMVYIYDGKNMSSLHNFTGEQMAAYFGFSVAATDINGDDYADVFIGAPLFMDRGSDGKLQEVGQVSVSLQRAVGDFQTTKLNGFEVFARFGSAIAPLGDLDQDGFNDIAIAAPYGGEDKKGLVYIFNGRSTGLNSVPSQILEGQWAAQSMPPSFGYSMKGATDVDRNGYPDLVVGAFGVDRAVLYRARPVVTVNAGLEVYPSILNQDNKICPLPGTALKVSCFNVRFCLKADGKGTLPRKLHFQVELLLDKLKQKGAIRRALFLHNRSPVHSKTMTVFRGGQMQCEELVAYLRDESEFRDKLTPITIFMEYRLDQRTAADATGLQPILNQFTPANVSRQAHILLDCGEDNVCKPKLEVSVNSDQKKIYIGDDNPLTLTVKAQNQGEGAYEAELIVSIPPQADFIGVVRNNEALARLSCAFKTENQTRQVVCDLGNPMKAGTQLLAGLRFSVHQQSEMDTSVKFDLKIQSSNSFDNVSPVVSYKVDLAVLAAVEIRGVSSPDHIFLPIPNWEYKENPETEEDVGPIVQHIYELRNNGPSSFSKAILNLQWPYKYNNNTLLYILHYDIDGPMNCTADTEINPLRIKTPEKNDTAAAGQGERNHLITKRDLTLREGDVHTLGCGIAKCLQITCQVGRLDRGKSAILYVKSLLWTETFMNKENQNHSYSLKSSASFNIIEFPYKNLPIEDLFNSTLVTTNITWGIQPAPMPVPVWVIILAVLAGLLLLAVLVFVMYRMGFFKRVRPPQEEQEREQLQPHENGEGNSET
row,Binder,percent of cells shifted
1,B7,71%

# Target: T6, cynomolgus αV on transfected HEK-293 cells (cynomolgus)
# T6 construct: whole, on cells; Transfected alone into human HEK-293 cells; also called Cynomolgus alphaV
# Experiment: as above
row,Binder,percent of cells shifted
1,B7,70%

# Target: T1, human αVβ6 integrin on cells
# Experiment: FMAT, supernatant, HEK 293 cells stably overexpressing αVβ6
row,Binder,FMAT FL1XCount
1,B1,16700
2,B2,1.6e+06
3,B3,79800
4,B5,10700

# Target: T4, cynomolgus αVβ6 on cells
# Experiment: FACS, supernatant, HEK-293 transfected with cynomolgus αV and β6
Binder,% Cells Shifted,GeoMean
B8,19%,33.5
B12,23%,30.2
B9,35%,37
B6,32%,35.2
B4,25%,22.8
B7,55%,66.4
